Laboratory results from patent US20180208661A1 (CSL, published 2018).

Assays:
Experiment in all cases: affinity for IL-3Rα extracellular domain protein; method not stated
[1] = target: T1, human IL-3Rα extracellular domain N232A (human, UniProt P26951 19-305)
T1 sequence: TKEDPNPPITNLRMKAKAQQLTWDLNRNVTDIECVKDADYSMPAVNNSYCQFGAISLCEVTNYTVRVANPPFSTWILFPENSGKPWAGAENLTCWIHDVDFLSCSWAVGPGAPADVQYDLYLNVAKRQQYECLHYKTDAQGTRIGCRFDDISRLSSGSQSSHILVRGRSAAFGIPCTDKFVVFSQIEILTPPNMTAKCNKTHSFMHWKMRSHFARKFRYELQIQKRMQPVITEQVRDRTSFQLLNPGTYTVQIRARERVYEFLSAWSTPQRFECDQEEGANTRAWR

[2] = target: T2, human IL-3Rα extracellular domain N232T (human, UniProt P26951 19-305)
T2 sequence: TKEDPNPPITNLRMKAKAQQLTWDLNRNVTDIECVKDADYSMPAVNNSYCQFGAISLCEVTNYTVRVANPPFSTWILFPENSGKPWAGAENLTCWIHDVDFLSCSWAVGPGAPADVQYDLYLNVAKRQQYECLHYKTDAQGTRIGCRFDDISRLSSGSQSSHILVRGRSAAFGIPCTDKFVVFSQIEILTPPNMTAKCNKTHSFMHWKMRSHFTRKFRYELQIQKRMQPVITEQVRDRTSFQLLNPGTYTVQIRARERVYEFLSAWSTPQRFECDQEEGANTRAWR

[3] = target: T3, human IL-3Rα extracellular domain V277A (human, UniProt P26951 19-305)
T3 sequence: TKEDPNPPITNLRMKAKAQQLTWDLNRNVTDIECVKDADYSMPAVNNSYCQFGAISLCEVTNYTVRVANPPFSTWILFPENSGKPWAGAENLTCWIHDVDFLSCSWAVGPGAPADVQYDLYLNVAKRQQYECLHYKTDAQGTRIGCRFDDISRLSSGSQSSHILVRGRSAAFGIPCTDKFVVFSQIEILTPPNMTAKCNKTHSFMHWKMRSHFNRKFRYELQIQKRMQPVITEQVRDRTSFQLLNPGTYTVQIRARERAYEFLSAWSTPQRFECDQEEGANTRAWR

[4] = target: T4, human IL-3Rα extracellular domain V277I (human, UniProt P26951 19-305)
T4 sequence: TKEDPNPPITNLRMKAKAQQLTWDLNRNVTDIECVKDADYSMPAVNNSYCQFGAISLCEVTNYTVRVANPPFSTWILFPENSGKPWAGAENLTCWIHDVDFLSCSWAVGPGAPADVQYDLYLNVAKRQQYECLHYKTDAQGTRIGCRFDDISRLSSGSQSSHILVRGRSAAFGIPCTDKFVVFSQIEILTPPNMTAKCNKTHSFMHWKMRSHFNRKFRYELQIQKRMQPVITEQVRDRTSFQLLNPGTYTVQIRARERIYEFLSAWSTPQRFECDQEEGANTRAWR

[5] = target: T5, human IL-3Rα extracellular domain Y278F (human, UniProt P26951 19-305)
T5 sequence: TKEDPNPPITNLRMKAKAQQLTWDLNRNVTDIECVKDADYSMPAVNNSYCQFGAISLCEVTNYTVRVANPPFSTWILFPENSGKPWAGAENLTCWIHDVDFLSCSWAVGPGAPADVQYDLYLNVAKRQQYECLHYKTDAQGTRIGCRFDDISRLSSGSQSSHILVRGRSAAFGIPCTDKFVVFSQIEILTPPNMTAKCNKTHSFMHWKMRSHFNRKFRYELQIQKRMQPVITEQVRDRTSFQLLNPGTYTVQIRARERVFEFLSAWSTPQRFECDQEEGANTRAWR

[6] = target: T6, wild type human IL-3Rα extracellular domain (human, UniProt P26951 19-305)
T6 construct: also called huIL-3Rα WT; WT
T6 sequence: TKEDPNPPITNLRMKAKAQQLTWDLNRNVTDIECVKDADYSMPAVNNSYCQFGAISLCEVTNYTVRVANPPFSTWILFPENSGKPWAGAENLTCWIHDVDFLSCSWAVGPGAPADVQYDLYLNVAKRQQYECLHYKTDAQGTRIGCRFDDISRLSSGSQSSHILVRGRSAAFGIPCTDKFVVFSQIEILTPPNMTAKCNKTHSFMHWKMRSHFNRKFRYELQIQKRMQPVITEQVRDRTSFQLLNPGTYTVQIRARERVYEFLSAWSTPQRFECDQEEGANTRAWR

[7] = target: T7, human IL-3Rα extracellular domain E51A (human, UniProt P26951 19-305)
T7 sequence: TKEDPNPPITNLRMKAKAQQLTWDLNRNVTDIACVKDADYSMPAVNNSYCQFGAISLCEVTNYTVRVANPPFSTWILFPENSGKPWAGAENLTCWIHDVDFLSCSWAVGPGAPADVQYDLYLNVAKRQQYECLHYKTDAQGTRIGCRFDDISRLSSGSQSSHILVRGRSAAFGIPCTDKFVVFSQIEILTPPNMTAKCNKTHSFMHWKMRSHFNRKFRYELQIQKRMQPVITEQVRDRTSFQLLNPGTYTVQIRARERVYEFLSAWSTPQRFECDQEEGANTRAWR

[8] = target: T8, human IL-3Rα extracellular domain E51Q (human, UniProt P26951 19-305)
T8 sequence: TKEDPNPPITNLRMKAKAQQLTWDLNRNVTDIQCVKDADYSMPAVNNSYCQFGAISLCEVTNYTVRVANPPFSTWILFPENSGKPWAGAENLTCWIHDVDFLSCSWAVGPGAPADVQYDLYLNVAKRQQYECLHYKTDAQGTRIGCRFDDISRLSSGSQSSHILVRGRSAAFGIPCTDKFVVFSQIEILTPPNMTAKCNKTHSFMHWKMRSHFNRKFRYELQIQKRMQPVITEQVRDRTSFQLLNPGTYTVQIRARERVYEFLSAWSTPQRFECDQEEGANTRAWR

[9] = target: T9, human IL-3Rα extracellular domain V53A (human, UniProt P26951 19-305)
T9 sequence: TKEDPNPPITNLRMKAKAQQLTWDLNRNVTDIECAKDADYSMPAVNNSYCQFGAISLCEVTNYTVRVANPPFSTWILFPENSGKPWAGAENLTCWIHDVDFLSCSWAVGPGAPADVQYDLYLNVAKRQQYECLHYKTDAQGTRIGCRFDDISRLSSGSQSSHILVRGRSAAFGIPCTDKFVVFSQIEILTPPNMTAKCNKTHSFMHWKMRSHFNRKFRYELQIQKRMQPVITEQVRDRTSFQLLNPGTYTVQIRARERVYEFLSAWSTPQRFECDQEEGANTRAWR

[10] = target: T10, human IL-3Rα extracellular domain S59A (human, UniProt P26951 19-305)
T10 sequence: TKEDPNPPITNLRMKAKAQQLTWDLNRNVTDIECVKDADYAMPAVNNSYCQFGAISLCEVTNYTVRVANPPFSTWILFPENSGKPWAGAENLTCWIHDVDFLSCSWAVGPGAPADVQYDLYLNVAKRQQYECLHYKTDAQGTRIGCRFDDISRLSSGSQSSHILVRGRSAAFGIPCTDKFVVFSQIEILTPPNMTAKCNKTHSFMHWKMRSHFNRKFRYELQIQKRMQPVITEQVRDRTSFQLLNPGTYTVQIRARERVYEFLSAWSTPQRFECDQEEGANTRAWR

[11] = target: T11, human IL-3Rα extracellular domain P61A (human, UniProt P26951 19-305)
T11 sequence: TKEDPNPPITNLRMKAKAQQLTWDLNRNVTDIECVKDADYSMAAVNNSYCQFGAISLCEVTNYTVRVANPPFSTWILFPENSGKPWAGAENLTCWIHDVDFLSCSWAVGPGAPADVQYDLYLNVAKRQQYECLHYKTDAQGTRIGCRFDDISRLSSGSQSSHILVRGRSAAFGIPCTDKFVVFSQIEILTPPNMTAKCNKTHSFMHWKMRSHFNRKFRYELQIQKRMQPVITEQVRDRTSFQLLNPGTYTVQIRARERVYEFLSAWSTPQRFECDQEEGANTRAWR

B1: human IL-3 (hIL-3) (ligand)
chain: APMTQTTPLKTSWVNCSNMIDEIITHLKQPPLPLLDFNNLNGEDQDILMENNLRRPNLEAFNRAVKSLQNASAIESILKNLLPCLPLATAAPTRHPIHIKDGDWNEFRRKLTFYLKTLENAQAQQTTLSLAIF
Kd [1]: 2040 nM
Kd [2]: 358 nM
Kd [3]: 219 nM
Kd [4]: 33 nM
Kd [5]: 1860 nM
Kd [6]: 125 nM
Kd [7]: 207 nM
Kd [8]: 213 nM
Kd [9]: 588 nM
Kd [10]: 262 nM
Kd [11]: 176 nM
